Results taken from the nanobody polyreactivity screen of Harvey et al. (2022).

Assay: yeast display, Sf9 membrane polyspecificity reagent, FACS + sequencing; frameworks hold sequencing errors
Summary of the method: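 Genes from sorted yeast were amplified by colony PCR, read by MiSeq 2 × 250 sequencing and filtered on CDR length. These cells carried a synthetic nanobody library in Saccharomyces cerevisiae BJ5465 and were sorted by FACS into low and high (top ~1%) gates on anti-HA and streptavidin fluorescence. Polyreactivity is labelled according to the gate of origin.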

Row | Sequence | polyreactivity (PSR sort gate)
1 | QVQLVESGGGLVQAGGSLRLSCAASGSILDFNAMGWYRQAPGKERELVAAISDSSGSTFYAVSVKGRFTISRDNAKNTVYLLMISLKPEDTAVYYCAARLGFYPYGYTSWYTVYFWGQGTQVTVSS | low polyreactivity
2 | QVQLVESGGGLVQAGGSLRLSCAASGSILDPNAMGWYRQAPGKESELVANITNGGRTNFADSVKGRFTISRDNAKNTVYFQMNRLKPEDTAVYYCAKDSTFNSVTVLAPIIYDSWGQATQVTVSS | low polyreactivity
3 | QVQLVESGGGLVQAGGSLRLSCAASGSILESNVMGWYRQAPGKERELVASISSSGDSTYADSVKGRFTISRDNAKNTVYLQMNSLKPEDTAVYYCNADRTQDRNPYTYATFDYWGQGTQVTVSS | low polyreactivity
4 | QVQLVESGGGLVQAGGSLRLSCAASGSILESNVMGWYRQAPGKERELVASISSSGDSTYADSVKGRFTISRDNAKNTVYLQMNSLKPEDTEVYYCAADRWYWTYALYYWGQGTQVTVSS | low polyreactivity
5 | QVQLVESGGGLVQAGGSLRLSCAASGSILFHYAMGWYRQAPGKERELVAAISRRGGSTYYADSVKGRFTISRDNAKNTVYFQMNSLKPEDNAVYYCAKYPSAYVDSDVTYDMDYWGQGTQVTVSS | low polyreactivity
6 | QVQLVESGGGLVQAGGSLRLSCAASGSILGSNAMGWYRQPPGKESEFVAAITTITGSTYYADSVKGRFTISRDNAKNTVYLEMNSLKPEDTAVYYCNADAHESTDYTLYFSGPYYYWGQGTQVTVSS | low polyreactivity
7 | QVQLVESGGGLVQAGGSLRLSCAASGSILGTNAMGWYRQAPGKESELVAAINYSGGNTYYADSVKGRFTISRDNAKNTVYLQMNSLKPEDTAVYYCAAVNGWRRVKRFDYWGQGTQVTVSS | high polyreactivity
8 | QVQLVESGGGLVQAGGSLRLSCAASGSILGTYAMGWYRQAPGKVRELVAAISSSGRTSYADSVKGRFTISRDNAKNTGYLQMNSLKPEDTAVYYCNASNYIVLINDPYAAPWLYDYWGQGTQVTVSS | low polyreactivity
9 | QVQLVESGGGLVQAGGSLRLSCAASGSILGVNVMGWYRQAPGKERELVAAISLSSSRTNYADSVKGRFTISRDNAKNTVYLQMNSLKPVDTAVYDCASAVRPGYARPYTSWGQGTQVTVSS | high polyreactivity
10 | QVQLVESGGGLVQAGGSLRLSCAASGSILGVYTMGWYRQAPGKERELVAAITSSSSSTYADSVKGRFTISRDNAKNTVYLQMNSLKPEDTAVYYCATRGWSKQLYGGYTQYYYWGQGTQVTVSS | high polyreactivity
11 | QVQLVESGGGLVQAGGSLRLSCAASGSILGYYAMGLYRQAPGKERELVAAISGRGGSTYYADSLKGRFTISRDNAKNTVYLQMNSLKPEDTAVYYCAKRSVWRGWGQGTQVTVSS | high polyreactivity
12 | QVQLVESGGGLVQAGGSLRLSCAASGSILGYYAMGWYRQAPGKERELVAANTASGGSTYYADSVKGRFTISRDNAKNTVYLQMNSLKPEDTAVYYCAAQYYATYGYWGQGTQVTVSS | low polyreactivity
13 | QVQLVESGGGLVQAGGSLRLSCAASGSILHLYAMGWYRQAPGKERELVARINSGGTTNYADSVKGRFTISRDNAKNTVYLQMNSLKPEDTAVYYCAARFTPYITSDDGHYDYWGQGTQVTVSS | low polyreactivity
14 | QVQLVESGGGLVQAGGSLRLSCAASGSILHPNGMGWYRQAPGKERELVAAITINGDSTYYADSVKGRFTISRDNAKNTVYLQMNSLKPEDTAVYYCAVDGWPTGWYYYWGQGTQVTVSS | low polyreactivity
15 | QVQLVESGGGLVQAGGSLRLSCAASGSILHPNGMGWYRQAPGKERELVAAITINGDSTYYADSVKGRFTISRDNAKNTVYLQMNSLKPEDTAVYYFAVDGWPTGWYYYWGQGTQVTVSS | low polyreactivity
16 | QVQLVESGGGLVQAGGSLRLSCAASGSILHPNGMGWYRQATGKERELVAAITINGDSTYYADSVKGRFTISRDNAKNTVYLQMNCLKPEDTAVYYCAVDGWPTGWYYYWGHGTQVTVSS | low polyreactivity
17 | QVQLVESGGGLVQAGGSLRLSCAASGSILKGYTMGWYRQAPGKERELVAAITQTDNSTNYADSVKGRFTISRDNAKNTVYLQMNSLKPEDTAVYYCAASQLEFRRAFYYWGQGTQVTVSS | low polyreactivity
18 | QVQLVESGGGLVQAGGSLRLSCAASGSILKPYAMGWYRQAPGKERELVARISSSGGRTYYADSVKGRFTISRDNAKNTFYFKMNSLKPEDTAVYYFAAAIVSYGRNDYWGQGTQVTVSS | high polyreactivity
19 | QVQLVESGGGLVQAGGSLRLSCAASGSILKSNAMGWYRQAPGKERELVAAITYRDGSTYYADSVKGRFTISRDNAKNTVYLQMNSLKAEDTAVYYCAAEPSWWNVFYPGYNYWGQGTQVTVSS | high polyreactivity
20 | QVQLVESGGGLVQAGGSLRLSCAASGSILLINAMGWYRQAPGKERELVAAIRTGGSTYYADSVKGRFTISRDNAKNTVYLQMNSLKPEDTAVYYCAVRTGRRWWKFDYWGQGTQVTVSS | low polyreactivity
21 | QVQLVESGGGLVQAGGSLRLSCAASGSILLIYAMGWYRQAPGKERELVAGITRGGSTNYADSVKGRFTISRDNAKNTVYLQMNSLKPEDTAVYYCASDGGPARYLVSDRDYWGQGTQVTVSS | low polyreactivity
22 | QVQLVESGGGLVQAGGSLRLSCAASGSILLVYAMGWYRPAPGKERELVAAIRWSGGSTYYADSVKGRFTISRDNAKNTVYLQMNSLKPEDTAVYYCNAGESYSVKGGPYDSDYWGQGTQVTVSS | low polyreactivity

Row | Sequence | polyreactivity (PSR sort gate)
23 | QVQLVESGGGLVQAGGSLRLSCAASGSILLYYAMGGSRPAPGKERQLVAAITCSGGSTYYADSVKGRFTISRDNAKNTDYLQMNSQKPEDTAVYYCNAVTDRAGSDYDSWGQGTQVTVSS | low polyreactivity
24 | QVQLVESGGGLVQAGGSLRLSCAASGSILNNYAMGWYRQAPGKERELVAAISSSGGTNYADSVKGRFKISRDNAKNTVYLQMNSLKPEDTAVYYCAKESLYQYDYWGQGTQVTVSS | low polyreactivity
25 | QVQLVESGGGLVQAGGSLRLSCAASGSILPGNAMGWSRQAPGKERELVAAITYSGGSTYADSVKGRFTISRDNAKNTVYLQINSLKPEDTAVYYCNADFIDPSVYDYNYWGQGTQVTVSS | low polyreactivity
26 | QVQLVESGGGLVQAGGSLRLSCAASGSILQRNAMGWYRQAPGKERELVAAISWSGDNTYYADSVKGRFTISRDNAKNTVYLQMNSLKPEDTAVYYCATDADIYFQEYDYWGQGTQVTVSS | low polyreactivity
27 | QVQLVESGGGLVQAGGSLRLSCAASGSILQSYAMGWSRQAPGKERELGAALSGSGGSTYYADSVKGRFTISRDNAKNTVYLQMNSLKPEDTAVYYCAKGPLYRTSRGEFGYWGQGTQVTVSS | low polyreactivity
28 | QVQLVESGGGLVQAGGSLRLSCAASGSILQSYAMGWYRQAPGKERELVAAITYRGGRTYYADSVKGRFTISRDNAKNTVYLQMNSLKPEDTAVYYCAADQQRSIDAPYGYWGQGTQVTVSS | low polyreactivity
29 | QVQLVESGGGLVQAGGSLRLSCAASGSILRLYAMGWYRQAPGKERELVAAISSGGSTYYADSVKGRFPISRDNAKNTVYLQMNSLKPEDTAVYYCAAGVFWSWRYAYDYWGKGTQVTVSS | low polyreactivity
30 | QVQLVESGGGLVQAGGSLRLSCAASGSILRQYAMGWYRQAPGKERELVATISRSGGSKYYADSVKGRFTISRDNAKNTVYLQMNSLKPEDTAVYYCAASRYNKSYREWWVGSWGQGTQVTVSS | high polyreactivity
31 | QVQLVESGGGLVQAGGSLRLSCAASGSILRSYAMGWYRQAPGKERELVAVINGSGGRTYYADSVKGRFTISRDNAKNTVYLQMNSLKPEDTAVYYCNKRYRFTGIRDPFDYWGQGTQVTVSS | low polyreactivity
32 | QVQLVESGGGLVQAGGSLRLSCAASGSILRSYAMGWYRQAPWKERELVAVINGSGGRTYYADSVKGRFTISRDIAKNTVYLQMNSLKPEDTAVYYCNADPGGRYPRRGYAHEGDYWGQGTQVTVSS | low polyreactivity
33 | QVQLVESGGGLVQAGGSLRLSCAASGSILRVNAMGWYRQAPGKEREVVAAISSGGITNYADSVKGALHNFTRQCEEYRLFTDEQPETGTYRGQFCARTYRNPASAGSLVVRYPYDYWGQGTQVTVTS | low polyreactivity
34 | QVQLVESGGGLVQAGGSLRLSCAASGSILRYYAMGWYRQAPGKERELVADISTSGGSTYYADSVKGRFTISRDNAKNTFDLQMISLKPEDTAVYYCASAYYRYLIYIGKFDYWGQGTQVTVSS | high polyreactivity
35 | QVQLVESGGGLVQAGGSLRLSCAASGSILSGYAMGWYRQAPGTERELVAAINDGGGTNYADSVKGRFTISRDNAKNTVYLQMKSLKPEDTAVYYCAAEQSVSFLVFTGVKFDYWGQGTQVTVSS | low polyreactivity
36 | QVQLVESGGGLVQAGGSLRLSCAASGSILSLNGMGWYRQAPGKERELVAVIRSGGSTYYADSVKGRFTISRDNAKNTVYLQMNSLKPEDTAVYYCNAQDYLTTVPDPEYDYWGQGTQVTVSS | low polyreactivity
37 | QVQLVESGGGLVQAGGSLRLSCAASGSILSRYAMGWYRQAPGKERELVATITRRGGSTFYADSVKGRFTISRDNAKNTVYLQMNSLKPEDTAVYYCAVGRLFWGQGTQVTVSS | low polyreactivity
38 | QVQLVESGGGLVQAGGSLRLSCAASGSILSTYSMGCYRQAPGKERELVASISSNAGSTYYADSVKGRFTISRDNAKNTVYLQMNSLKPEDTAVYYCNKVYGGGTYDYWGQGTQVTVSS | low polyreactivity
39 | QVQLVESGGGLVQAGGSLRLSCAASGSILTINAMGWYRQAPGKERELVARITISSGSTYYADSVKGRFTISRDNAKNTVYLQMNSLKPEDTAVYYCATDGRSNYYWGDYWGQGTQVTVSS | low polyreactivity
40 | QVQLVESGGGLVQAGGSLRLSCAASGSILTRNAMGWYRQAPGKERELVAAISGGGGRTYYADSVKGRFTISRDNAKNTVYLQMNSLKPEDTAVYYCAADDGYSSNEYDYWGQGTQVTVSS | low polyreactivity
41 | QVQLVESGGGLVQAGGSLRLSCAASGSILTRNAMGWYRQAPGKERELVAAISYSGVRTYYADSVKGRFTISRDNAKNTVYLQMNSLKPEDTAVYYCNAVISSRYDYWGQGTQVTVSS | high polyreactivity
42 | QVQLVESGGGLVQAGGSLRLSCAASGSILTVYAMGWYRQAPGKERELVARIRSGDRTYYADSVKGRFTISRDNAKNTVYLQMNSLKPEDTAVYYCAAGSQRRYYHTNWDSFNYWGQGSQVTVSS | low polyreactivity
43 | QVQLVESGGGLVQAGGSLRLSCAASGSILVANGMGWYRKAPGKERELVAGITTRGGNTYYADSVKGRFTISRDNAKNTVYLQMNSLKPEDTAVYYCATDLIGVWYWYEYWGQGTQVTVSS | low polyreactivity
